The values that follow come from patent publication US20200140542A1 (OSAKA UNIVERSITY, published 2020).

The target of assay [1] is T1, human CL-7 (human, UniProt O95471 1-211).
T1 construct: whole, on cells; also called hCL-7; hCL-7/HT1080 cells
T1 sequence (looked up): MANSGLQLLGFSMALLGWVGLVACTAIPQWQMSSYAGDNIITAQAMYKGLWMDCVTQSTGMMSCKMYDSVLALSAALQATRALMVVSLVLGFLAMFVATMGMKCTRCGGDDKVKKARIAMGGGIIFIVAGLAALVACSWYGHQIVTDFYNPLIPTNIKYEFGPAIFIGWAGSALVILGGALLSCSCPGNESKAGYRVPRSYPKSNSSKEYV
The assay can be described thus: flow cytometry, hybridoma culture supernatant on transfected cells. As for the experimental part: (§1) After the hybridoma culture supernatants prepared in Example 1 (1A2, 2G8, and 3B2) were individually added and stirred, the resulting mixtures were allowed to stand on ice for 1 hour. After washing with 0.2% BSA-PBS once, goat anti-rat IgG (H +L)-FITC antibody (KPL) diluted with 1% BSA-PBS was added and stirred, and the resulting mixtures were allowed to stand on ice for 30 minutes. After washing with 0.2% BSA-PBS once, PI (Mitenyi Biotec) diluted with 1% BSA-PBS to a final concentration of 5 μg/mL was added, and FCM analysis was performed.
(A flow cytometer gives signals particle by particle.)

Assay [2] addresses T2, human CL-6 (human, UniProt P56747 1-220).
T2 construct: whole, on cells; also called hCL-6; hCL-6/HT1080 cells
T2 sequence (looked up): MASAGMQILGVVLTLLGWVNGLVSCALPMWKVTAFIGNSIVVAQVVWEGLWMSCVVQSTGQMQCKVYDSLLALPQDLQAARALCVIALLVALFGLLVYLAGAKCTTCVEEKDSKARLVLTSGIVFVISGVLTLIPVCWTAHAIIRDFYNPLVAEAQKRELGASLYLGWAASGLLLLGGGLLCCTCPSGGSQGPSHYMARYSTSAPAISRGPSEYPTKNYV
The description is as above. As for the experimental part: as §1

For assay [3], the target named is T3, human CL-1 (human, UniProt O95832 1-211).
T3 construct: whole, on cells; also called hCL-1; hCL-1/HT1080 cells
T3 sequence (looked up): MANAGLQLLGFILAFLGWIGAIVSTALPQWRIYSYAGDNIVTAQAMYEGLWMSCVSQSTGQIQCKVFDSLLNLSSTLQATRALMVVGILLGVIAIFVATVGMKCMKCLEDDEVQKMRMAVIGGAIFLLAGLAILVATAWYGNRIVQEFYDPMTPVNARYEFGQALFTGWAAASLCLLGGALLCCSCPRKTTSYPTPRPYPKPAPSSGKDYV
The description is as above. The procedure: as §1

Assay [4] concerns the target T4, human CL-3 (human, UniProt O15551 1-220).
T4 construct: whole, on cells; also called hCL-3; hCL-3/HT1080 cells
T4 sequence (looked up): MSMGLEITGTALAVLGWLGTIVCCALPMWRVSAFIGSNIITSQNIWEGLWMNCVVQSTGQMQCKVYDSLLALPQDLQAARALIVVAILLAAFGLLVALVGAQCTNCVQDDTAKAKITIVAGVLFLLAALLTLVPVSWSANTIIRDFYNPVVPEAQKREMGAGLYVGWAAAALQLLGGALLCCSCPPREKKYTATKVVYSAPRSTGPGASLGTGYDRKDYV
The assay is described as above. As for the experimental part:
as §1

The target of assay [5] is T5, human CL-4 (human, UniProt O14493 1-209).
T5 construct: whole, on cells; also called hCL-4; hCL-4/HT1080 cells
T5 sequence (looked up): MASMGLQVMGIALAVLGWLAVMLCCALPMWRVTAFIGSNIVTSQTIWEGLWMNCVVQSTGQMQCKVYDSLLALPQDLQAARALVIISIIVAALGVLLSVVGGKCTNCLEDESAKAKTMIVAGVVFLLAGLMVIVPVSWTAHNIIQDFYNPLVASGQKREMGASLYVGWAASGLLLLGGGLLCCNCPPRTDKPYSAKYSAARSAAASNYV
Described as above. The procedure: as §1

For assay [6], the target named is T6, human CL-9 (human, UniProt O95484 1-217).
T6 construct: whole, on cells; also called hCL-9; hCL-9/HT1080 cells
T6 sequence (looked up): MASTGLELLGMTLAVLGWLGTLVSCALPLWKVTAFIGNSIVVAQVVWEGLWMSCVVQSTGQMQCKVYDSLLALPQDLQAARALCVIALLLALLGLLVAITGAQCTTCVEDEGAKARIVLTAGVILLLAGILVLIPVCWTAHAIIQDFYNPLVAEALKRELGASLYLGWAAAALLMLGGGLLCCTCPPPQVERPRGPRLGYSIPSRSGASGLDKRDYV
Described as above. The procedure: as §1

The target in assay [7] is T7, mouse CL-2 (mouse, UniProt O88552 1-230).
T7 construct: whole, on cells; also called mCL-2; mCL-2/L cells
T7 sequence (looked up): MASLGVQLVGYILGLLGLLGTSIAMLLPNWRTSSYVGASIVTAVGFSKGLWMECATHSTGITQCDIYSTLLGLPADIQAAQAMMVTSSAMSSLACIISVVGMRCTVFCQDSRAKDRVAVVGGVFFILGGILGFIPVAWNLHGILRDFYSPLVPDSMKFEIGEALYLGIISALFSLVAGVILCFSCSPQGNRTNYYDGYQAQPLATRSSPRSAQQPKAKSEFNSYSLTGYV
The assay can be described thus: flow cytometry, culture supernatant on transfected cells. The procedure:
as §1
Further, all the three hybridoma culture supernatants 1A2, 2G8, and 3B2 prepared in Example 1 were also confirmed to have affinity to mCL-2/L cells.

Assay [8] deals with T7, mouse CL-2. The assay is described as follows: flow cytometry on transfected cells, antibody at 5 µg/mL. From the text: (§2) hCL-1/HT1080 cells, hCL-2/HT1080 cells, hCL-3/HT1080 cells, hCL-4/HT1080 cells, human CL-5 expressing HT1080 cells (hCL-5/HT1080 cells), hCL-6/HT1080 cells, hCL-7/HT1080 cells, and hCL-9/HT1080 cells, mouse CLDN1 expressing L cells (mCL-1/L cells), mCL-2/L cells, and mouse CL4 expressing L cells (mCL-4/L cells) were individually recovered by trypsin treatment. […] Subsequently, after washing with 0.2% BSA-PBS once, goat anti-human IgG (H+L)-FITC antibody (Jackson ImmunoResearch) diluted with 1% BSA-PBS was added and stirred, and the resulting mixtures were allowed to stand on ice for 30 minutes. After washing with 0.2% BSA-PBS once, PI diluted with 1% BSA-PBS to a final concentration of 5 μg/mL was added, and FCM analysis was performed.

Assay [9] deals with T1, human CL-7. The assay is described as follows: flow cytometry on transfected cells.
Source text: as §2

A further assay deals with T8, mouse CL4 (mouse, UniProt O35054 1-210).
T8 construct: whole, on cells; also called mCL-4; mCL-4/L cells
T8 sequence (looked up): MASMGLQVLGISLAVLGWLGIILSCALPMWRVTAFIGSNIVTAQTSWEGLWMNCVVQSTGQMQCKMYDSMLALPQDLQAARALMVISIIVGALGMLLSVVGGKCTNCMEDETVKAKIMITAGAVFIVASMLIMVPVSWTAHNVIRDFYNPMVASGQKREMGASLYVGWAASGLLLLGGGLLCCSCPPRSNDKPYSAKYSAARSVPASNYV
The assay can be described thus: flow cytometry on transfected cells.
Source text: as §2

The next assay deals with T9, mouse CLDN1 (mouse, UniProt O88551 1-211).
T9 construct: whole, on cells; also called mCL-1; mCL-1/L cells
T9 sequence (looked up): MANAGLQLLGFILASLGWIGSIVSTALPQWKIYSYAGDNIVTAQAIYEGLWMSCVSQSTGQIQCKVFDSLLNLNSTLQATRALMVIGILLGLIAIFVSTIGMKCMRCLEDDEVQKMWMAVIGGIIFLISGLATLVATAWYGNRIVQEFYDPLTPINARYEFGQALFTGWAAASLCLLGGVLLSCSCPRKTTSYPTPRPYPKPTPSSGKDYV
The assay is described as follows: flow cytometry on transfected cells.
Source text: as §2

In assay [10] the target is T2, human CL-6. The assay can be described thus: flow cytometry on transfected cells.
Source text: as §2

Assay [11] deals with T3, human CL-1. The assay is described as follows: flow cytometry on transfected cells.
Source text: as §2

The next assay deals with T10, human CL-5 (human, UniProt O00501 1-218).
T10 construct: whole, on cells; also called hCL-5; hCL-5/HT1080 cells
T10 sequence (looked up): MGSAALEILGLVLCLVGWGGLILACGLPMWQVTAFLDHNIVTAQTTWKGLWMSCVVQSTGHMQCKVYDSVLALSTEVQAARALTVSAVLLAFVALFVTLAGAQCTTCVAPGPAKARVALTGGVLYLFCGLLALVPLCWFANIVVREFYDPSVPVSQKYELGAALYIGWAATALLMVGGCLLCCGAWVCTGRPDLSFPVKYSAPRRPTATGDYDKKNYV
The assay is described as follows: flow cytometry on transfected cells.
Source text: as §2

The target of assay [12] is T4, human CL-3. The assay is described as follows: flow cytometry on transfected cells.
Source text: as §2

Assay [13] concerns the target T5, human CL-4. The assay is described as follows: flow cytometry on transfected cells.
Source text: as §2

In assay [14] the target is T6, human CL-9. The assay can be described thus: flow cytometry on transfected cells.
Source text: as §2

B1: anti-CL-2 antibody 2G8 (antibody, IgG2b, V domains shown)
VH: QVNLLQSGAALVKPGASVRLSCRVSGYSFTVSFLHWVKQSHGKSLEWIGYINPYSGSPNYNEKFKSKTTLTVDKSTSTAYMELSGLTSEDSASYYCTNWDYWGQGVMVTVSS
VL: DVVMTQTPVSLSLAIGQPASISCKSSQSLLGSSGKTFLNWILQRPGQSPKRLIYQVSTLYSEVPDRFSGSGSETEFTLKITRVEAEDLGVYYCWQGIHFPHTFGAGTKLELKR
notes: also called clone 2G8; hybridoma culture supernatant 2G8
Turning to B1, the binding result with human CL-7 [1], in the assay with human CL-6 [2], with human CL-1 [3], with human CL-3 [4], in the assay with human CL-4 [5] and in the assay with human CL-9 [6] was “no binding” in each case. In the assay with mouse CL-2 [7], the binding result is “binds”.

B2: anti-CL-2 human-rat chimeric antibody 2G8 produced in Example 4 (antibody, V domains shown)
VH: QVNLLQSGAALVKPGASVRLSCRVSGYSFTVSFLHWVKQSHGKSLEWIGYINPYSGSPNYNEKFKSKTTLTVDKSTSTAYMELSGLTSEDSASYYCTNWDYWGQGVMVTVSS
VL: DVVMTQTPVSLSLAIGQPASISCKSSQSLLGSSGKTFLNWILQRPGQSPKRLIYQVSTLYSEVPDRFSGSGSETEFTLKITRVEAEDLGVYYCWQGIHFPHTFGAGTKLELKR
notes: Variable regions of rat 2G8 cloned into vectors with human constant regions (VH: pFUSE-CHIg-hG1, human IgG1); also called anti-CL-2 chimeric antibody 2G8; anti-CL-2 chimeric antibody 2G8a
Take B2: the binding result with mouse CL-2 [8] is reported as “binds”; with human CL-7 [9], “no binding (tested: 5 µg/mL)”; with mouse CL4, “no binding (tested: 5 µg/mL)”; with mouse CLDN1, “no binding (tested: 5 µg/mL)”; with human CL-6 [10] it was “no binding (tested: 5 µg/mL)”; with human CL-1 [11], “no binding (tested: 5 µg/mL)”. For the same molecule, the binding result with human CL-5, with human CL-3 [12], with human CL-4 [13] and in the assay with human CL-9 [14] was “no binding (tested: 5 µg/mL)” in each case.
